In PMC314469, “Protein Interaction Networks by Proteome Peptide Scanning” (PLoS Biology, 2004):

T1: Boi1 SH3 (BOI1_YEAST), P38041
T1 chain: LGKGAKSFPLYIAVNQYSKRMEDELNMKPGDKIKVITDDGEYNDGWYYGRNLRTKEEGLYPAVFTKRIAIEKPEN

T2: Boi2 SH3 (BOI2_YEAST), P39969
T2 chain: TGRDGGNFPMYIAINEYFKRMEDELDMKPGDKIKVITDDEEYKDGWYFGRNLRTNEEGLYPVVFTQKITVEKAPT

T3: Myo5 SH3 (MYO5_YEAST), Q04439
T3 chain: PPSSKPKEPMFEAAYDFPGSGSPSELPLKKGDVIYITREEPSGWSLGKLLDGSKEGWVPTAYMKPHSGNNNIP

T4: Rvs167 SH3 (RV167_YEAST), P39743
T4 chain: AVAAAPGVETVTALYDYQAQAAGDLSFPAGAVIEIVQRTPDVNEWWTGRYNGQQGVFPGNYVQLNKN

T5: Yfr024 SH3 (LSB3_YEAST), P43603
T5 chain: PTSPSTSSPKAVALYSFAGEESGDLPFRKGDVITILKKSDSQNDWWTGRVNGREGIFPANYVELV

T6: Yhr016c SH3 (YSC84_YEAST), P32793
T6 chain: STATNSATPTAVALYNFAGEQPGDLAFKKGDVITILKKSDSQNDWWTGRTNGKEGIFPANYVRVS


How the values were obtained:
Test in all cases: SPOT array
[1] = target: T1, Boi1 SH3 (BOI1_YEAST), P38041
[2] = target: T2, Boi2 SH3 (BOI2_YEAST), P39969
[3] = target: T3, Myo5 SH3 (MYO5_YEAST), Q04439
[4] = target: T4, Rvs167 SH3 (RV167_YEAST), P39743
[5] = target: Sho1 SH3 (SHO1_YEAST), P40073
Sequence of Sho1 SH3 (SHO1_YEAST), P40073 (P40073 295-366): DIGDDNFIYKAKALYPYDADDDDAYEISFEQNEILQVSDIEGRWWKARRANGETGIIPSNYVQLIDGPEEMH

[6] = target: T5, Yfr024 SH3 (LSB3_YEAST), P43603
[7] = target: T6, Yhr016c SH3 (YSC84_YEAST), P32793

Binder	normalised SPOT signal, Boehringer light units (BLU); mean over the file's lines of this peptide [1]	normalised SPOT signal, Boehringer light units (BLU); mean over the file's lines of this peptide [2]	normalised SPOT signal, Boehringer light units (BLU); mean over the file's lines of this peptide [3]	normalised SPOT signal, Boehringer light units (BLU); mean over the file's lines of this peptide [4]	normalised SPOT signal, Boehringer light units (BLU); mean over the file's lines of this peptide [5]	normalised SPOT signal, Boehringer light units (BLU); mean over the file's lines of this peptide [6]	normalised SPOT signal, Boehringer light units (BLU); mean over the file's lines of this peptide [7]
TGESRKAPLIPLLK [YGR099W 447-460]	8.4	-0	214	101	23.8	162	5.8
SVNIKSWPLKPSNF [YNL226W 113-126]	76.2	0	56.5	61.7	49.8	58.3	22.6
TELLRIIPEMPKDL [YLR032W 80-93]	79.9	15.7	228	22.9	97.2	132	19.4
SVSEKTNPSSPSVS [YHR061C 244-257]	124	29.4	127	2	111	0	12.6
TDTTKVTPIVPVPI [YHR188C 382-395]	27.1	-0	48	24.6	30.2	11.7	6.5
TASGKTSPILPLQN [YBR066C 94-107]	106	20.8	290	35.8	0.1	2.6	5.1
TEIYKLEPREPQVD [YEL031W 1078-1091]	132	15.6	29.1	98	29	0	64.7
TGGGRIVPGVPPGA [YGR054W 516-529]	79.3	21.9	118	313	72.9	132	50.4
TDLGKDIPFFPSSE [YDR443C 541-554]	0	15.6	146	59.3	48.6	9.5	13.5
TEVWRKVPMKPIFE [YCR032W 1849-1862]	163	33.4	243	523	59.1	4970	788
TEFSRPIPPTPSGF [YPL009C 63-76]	40.4	0	163	34400	86.7	13800	9520

Next, values leading:

normalised SPOT signal, Boehringer light units (BLU); mean over the file's lines of this peptide [1]	normalised SPOT signal, Boehringer light units (BLU); mean over the file's lines of this peptide [2]	normalised SPOT signal, Boehringer light units (BLU); mean over the file's lines of this peptide [3]	normalised SPOT signal, Boehringer light units (BLU); mean over the file's lines of this peptide [4]	normalised SPOT signal, Boehringer light units (BLU); mean over the file's lines of this peptide [5]	normalised SPOT signal, Boehringer light units (BLU); mean over the file's lines of this peptide [6]	normalised SPOT signal, Boehringer light units (BLU); mean over the file's lines of this peptide [7]	Binder
221	22.8	83	75.3	138	224	37.2	SYMDKIYPDLPNDK [YFL047W 497-510]
3080	32.8	740	100	50	212	28.8	SYISRKYPRAPAFI [YMR320W 69-82]
57.9	0	77.3	57.4	53.6	22.7	10.8	TELLKTLPFYPTPS [YGR110W 91-104]
32.5	23.1	23.4	18.8	14700	129	31.5	TDLFKPLPEPPTEL [YNL331C 2-15]
273	45.9	593	84	109	423	28.9	TARNKKSPGGPRQR [YLR244C 372-385]
